Assay results from patent US20100221748A1.

Biological target: T1, RB-C fusion protein (residues 701-928) (UniProt P06400)
T1 sequence: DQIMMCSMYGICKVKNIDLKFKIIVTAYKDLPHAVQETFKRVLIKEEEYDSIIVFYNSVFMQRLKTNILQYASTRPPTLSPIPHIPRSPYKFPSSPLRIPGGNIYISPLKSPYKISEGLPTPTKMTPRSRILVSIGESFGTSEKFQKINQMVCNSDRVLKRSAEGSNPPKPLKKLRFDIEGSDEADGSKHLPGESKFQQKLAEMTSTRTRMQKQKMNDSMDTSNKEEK

Substance: AMPK holoenzyme (α/β/γ heterotrimers)
- nonradioactive in vitro kinase assay; phosphorylation monitored by immunoblot using phospho-Rb800/804 antibody: AMPK directly phosphorylated Rb at Ser804 and that this modification could be inhibited by the AMPK inhibitor, compound C
